Laboratory results taken from US20260028402A1 (published 2026).

Assays:
[1] = target: T1, full-length mouse CD100 protein MusCD100 on cells (mouse, UniProt O09126 24-861); experiment: FACS
T1 chain: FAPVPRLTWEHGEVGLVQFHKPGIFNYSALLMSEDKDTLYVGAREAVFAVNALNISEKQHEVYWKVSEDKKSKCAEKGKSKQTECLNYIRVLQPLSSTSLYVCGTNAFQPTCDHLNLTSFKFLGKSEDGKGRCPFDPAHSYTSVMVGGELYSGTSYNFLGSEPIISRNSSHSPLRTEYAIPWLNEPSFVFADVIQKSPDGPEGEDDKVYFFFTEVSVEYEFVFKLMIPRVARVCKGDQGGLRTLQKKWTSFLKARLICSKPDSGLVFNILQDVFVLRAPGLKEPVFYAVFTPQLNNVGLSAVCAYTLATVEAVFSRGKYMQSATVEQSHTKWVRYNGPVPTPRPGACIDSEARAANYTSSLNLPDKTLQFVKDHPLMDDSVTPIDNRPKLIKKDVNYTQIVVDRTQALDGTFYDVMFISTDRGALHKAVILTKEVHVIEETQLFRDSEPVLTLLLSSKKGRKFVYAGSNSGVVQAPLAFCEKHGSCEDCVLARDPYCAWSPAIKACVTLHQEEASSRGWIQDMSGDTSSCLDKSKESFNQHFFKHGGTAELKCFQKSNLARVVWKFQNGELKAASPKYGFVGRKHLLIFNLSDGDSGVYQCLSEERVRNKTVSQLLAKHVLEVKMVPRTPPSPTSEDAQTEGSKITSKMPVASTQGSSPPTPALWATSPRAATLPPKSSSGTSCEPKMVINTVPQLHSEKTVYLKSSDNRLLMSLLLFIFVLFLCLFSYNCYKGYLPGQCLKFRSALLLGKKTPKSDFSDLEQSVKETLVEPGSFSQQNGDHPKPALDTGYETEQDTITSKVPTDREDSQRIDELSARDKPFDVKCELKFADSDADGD

[2] = target: T2, full-length human CD100 protein HuCD100 on cells (human, UniProt Q92854 22-862); experiment: FACS
[3] = target: T2, full-length human CD100 protein HuCD100 …; experiment: FACS; Jurkat cells
MusCD100-His = target: T3, MusCD100-His (mouse, UniProt O09126 24-733); experiment: ELISA
T3 chain: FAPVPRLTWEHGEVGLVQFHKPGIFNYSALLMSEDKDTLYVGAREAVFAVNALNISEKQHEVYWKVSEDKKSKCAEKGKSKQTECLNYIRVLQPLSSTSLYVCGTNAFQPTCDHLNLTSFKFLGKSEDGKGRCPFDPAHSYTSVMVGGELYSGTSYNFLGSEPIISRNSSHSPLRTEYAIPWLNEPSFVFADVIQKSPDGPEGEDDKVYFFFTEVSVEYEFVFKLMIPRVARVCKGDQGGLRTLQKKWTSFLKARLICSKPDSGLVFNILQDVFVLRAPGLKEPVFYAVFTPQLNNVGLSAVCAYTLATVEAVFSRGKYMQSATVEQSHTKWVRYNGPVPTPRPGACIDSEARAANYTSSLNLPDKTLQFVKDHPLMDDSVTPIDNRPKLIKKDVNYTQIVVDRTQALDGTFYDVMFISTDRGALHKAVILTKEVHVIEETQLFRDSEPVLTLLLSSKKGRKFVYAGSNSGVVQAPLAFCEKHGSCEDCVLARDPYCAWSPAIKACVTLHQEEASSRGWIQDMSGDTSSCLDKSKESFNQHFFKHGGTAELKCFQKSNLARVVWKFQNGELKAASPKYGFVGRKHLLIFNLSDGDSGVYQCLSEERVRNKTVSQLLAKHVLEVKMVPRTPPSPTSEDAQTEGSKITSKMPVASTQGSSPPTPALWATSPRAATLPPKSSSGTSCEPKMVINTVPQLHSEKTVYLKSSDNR

HuCD100-His = HuCD100-His (human, UniProt Q92854 22-734); experiment: ELISA
[4] = target: HuCD100-Fc (in-house prepared) (human, UniProt Q92854 22-734, biotinylated in the Plexin binding and blocking assays (sites not given)); experiment: FACS blocking; HuPlexin-B1-HEK293, FIG. 12A
[5] = target: T2, full-length human CD100 protein HuCD100 …; experiment: FACS; HuPBMC cells

- EC50 [1]: 0.307 nM
- EC50 [2]: 0.426 nM
- EC50 [3]: 0.275 nM
- EC50 (MusCD100-His): 0.0908 nM
- EC50 (HuCD100-His): 0.122 nM
- IC50 [4]: 0.896 nM
- EC50 [5]: 0.479 nM
B1: Pepinemab (antibody, V domains shown)
VH: QVQLVQSGAEVKKPGSSVKVSCKASGYSFSDYYMHWVRQAPGQGLEWMGQINPTTGGASYNQKFKGKATITVDKSTSTAYMELSSLRSEDTAVYYCARYYYGRHFDVWGQGTTVTVSS
VL: DIVMTQSPDSLAVSLGERATINCKASQSVDYDGDSYMNWYQQKPGQPPKLLIYAASNLESGVPDRFSGSGSGTDFTLTISSLQAEDVAVYYCQQSNEDPYTFGQGTKLEIK
